Results as given in patent US20220025010A1 (ANTAG THERAPEUTICS, published 2022).

T1: human GIP receptor (human, UniProt P48546 22-466)
T1 sequence (looked up): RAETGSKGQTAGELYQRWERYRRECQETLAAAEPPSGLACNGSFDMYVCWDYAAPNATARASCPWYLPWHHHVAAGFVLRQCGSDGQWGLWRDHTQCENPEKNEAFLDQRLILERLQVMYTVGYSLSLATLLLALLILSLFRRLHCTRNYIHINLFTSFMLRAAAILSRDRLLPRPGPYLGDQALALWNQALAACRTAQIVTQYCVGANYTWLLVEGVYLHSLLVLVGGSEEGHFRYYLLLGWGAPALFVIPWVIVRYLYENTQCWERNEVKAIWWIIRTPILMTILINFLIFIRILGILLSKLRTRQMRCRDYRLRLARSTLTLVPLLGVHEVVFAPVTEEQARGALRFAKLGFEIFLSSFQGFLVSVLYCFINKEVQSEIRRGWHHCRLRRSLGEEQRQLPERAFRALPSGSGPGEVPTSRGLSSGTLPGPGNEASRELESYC

B1: AT263 (peptide)
peptide: GGTFISDYSIAMDRIKQQDFVNWLLAQR
HELM: PEPTIDE1{G.G.T.F.I.S.D.Y.S.I.A.M.D.R.I.K.Q.Q.D.F.V.N.W.L.L.A.Q.R}|PEPTIDE2{[O=C(O)CCCCCCCCCCCCCCC(=O)[*:2]].[gGlu]}$PEPTIDE1,PEPTIDE2,16:R3-2:R2$$$V2.0; N-terminus assumed
SMILES: CC[C@H](C)[C@H](NC(=O)[C@H](CO)NC(=O)[C@H](Cc1ccc(O)cc1)NC(=O)[C@H](CC(=O)O)NC(=O)[C@H](CO)NC(=O)[C@@H](NC(=O)[C@H](Cc1ccccc1)NC(=O)[C@@H](NC(=O)CNC(=O)CN)[C@@H](C)O)[C@@H](C)CC)C(=O)N[C@@H](C)C(=O)N[C@@H](CCSC)C(=O)N[C@@H](CC(=O)O)C(=O)N[C@@H](CCCNC(=N)N)C(=O)N[C@H](C(=O)N[C@@H](CCCCNC(=O)CC[C@H](NC(=O)CCCCCCCCCCCCCCC(=O)O)C(=O)O)C(=O)N[C@@H](CCC(N)=O)C(=O)N[C@@H](CCC(N)=O)C(=O)N[C@@H](CC(=O)O)C(=O)N[C@@H](Cc1ccccc1)C(=O)N[C@H](C(=O)N[C@@H](CC(N)=O)C(=O)N[C@@H](Cc1c[nH]c2ccccc12)C(=O)N[C@@H](CC(C)C)C(=O)N[C@@H](CC(C)C)C(=O)N[C@@H](C)C(=O)N[C@@H](CCC(N)=O)C(=O)N[C@@H](CCCNC(=N)N)C(=O)O)C(C)C)[C@@H](C)CC
B2: AT510 (peptide)
peptide: SGTFISDYSIAMDRIKQQDFVNWLLAQR
HELM: PEPTIDE1{S.G.T.F.I.S.D.Y.S.I.A.M.D.R.I.K.Q.Q.D.F.V.N.W.L.L.A.Q.R.[am]}|PEPTIDE2{[O=C(O)CCCCCCCCCCCCCCC(=O)[*:2]].[gGlu].[O=C(COCCOCCN[*:1])[*:2]]}$PEPTIDE1,PEPTIDE2,16:R3-3:R2$$$V2.0; N-terminus assumed
SMILES: CC[C@H](C)[C@H](NC(=O)[C@H](CO)NC(=O)[C@H](Cc1ccc(O)cc1)NC(=O)[C@H](CC(=O)O)NC(=O)[C@H](CO)NC(=O)[C@@H](NC(=O)[C@H](Cc1ccccc1)NC(=O)[C@@H](NC(=O)CNC(=O)[C@@H](N)CO)[C@@H](C)O)[C@@H](C)CC)C(=O)N[C@@H](C)C(=O)N[C@@H](CCSC)C(=O)N[C@@H](CC(=O)O)C(=O)N[C@@H](CCCNC(=N)N)C(=O)N[C@H](C(=O)N[C@@H](CCCCNC(=O)COCCOCCNC(=O)CC[C@H](NC(=O)CCCCCCCCCCCCCCC(=O)O)C(=O)O)C(=O)N[C@@H](CCC(N)=O)C(=O)N[C@@H](CCC(N)=O)C(=O)N[C@@H](CC(=O)O)C(=O)N[C@@H](Cc1ccccc1)C(=O)N[C@H](C(=O)N[C@@H](CC(N)=O)C(=O)N[C@@H](Cc1c[nH]c2ccccc12)C(=O)N[C@@H](CC(C)C)C(=O)N[C@@H](CC(C)C)C(=O)N[C@@H](C)C(=O)N[C@@H](CCC(N)=O)C(=O)N[C@@H](CCCNC(=N)N)C(N)=O)C(C)C)[C@@H](C)CC
B3: AT506 (peptide)
peptide: PGTFISDYSIAMDRIKQQDFVNWLLAQR
HELM: PEPTIDE1{P.G.T.F.I.S.D.Y.S.I.A.M.D.R.I.K.Q.Q.D.F.V.N.W.L.L.A.Q.R.[am]}|PEPTIDE2{[O=C(O)CCCCCCCCCCCCCCC(=O)[*:2]].[gGlu]}$PEPTIDE1,PEPTIDE2,16:R3-2:R2$$$V2.0; N-terminus assumed
SMILES: CC[C@H](C)[C@H](NC(=O)[C@H](CO)NC(=O)[C@H](Cc1ccc(O)cc1)NC(=O)[C@H](CC(=O)O)NC(=O)[C@H](CO)NC(=O)[C@@H](NC(=O)[C@H](Cc1ccccc1)NC(=O)[C@@H](NC(=O)CNC(=O)[C@@H]1CCCN1)[C@@H](C)O)[C@@H](C)CC)C(=O)N[C@@H](C)C(=O)N[C@@H](CCSC)C(=O)N[C@@H](CC(=O)O)C(=O)N[C@@H](CCCNC(=N)N)C(=O)N[C@H](C(=O)N[C@@H](CCCCNC(=O)CC[C@H](NC(=O)CCCCCCCCCCCCCCC(=O)O)C(=O)O)C(=O)N[C@@H](CCC(N)=O)C(=O)N[C@@H](CCC(N)=O)C(=O)N[C@@H](CC(=O)O)C(=O)N[C@@H](Cc1ccccc1)C(=O)N[C@H](C(=O)N[C@@H](CC(N)=O)C(=O)N[C@@H](Cc1c[nH]c2ccccc12)C(=O)N[C@@H](CC(C)C)C(=O)N[C@@H](CC(C)C)C(=O)N[C@@H](C)C(=O)N[C@@H](CCC(N)=O)C(=O)N[C@@H](CCCNC(=N)N)C(N)=O)C(C)C)[C@@H](C)CC
B4: AT508 (peptide)
peptide: GGTFISDYSIAMDRIKQQDFVNWLLAQR
HELM: PEPTIDE1{G.G.T.F.I.S.D.Y.S.I.A.M.D.R.I.K.Q.Q.D.F.V.N.W.L.L.A.Q.R.[am]}|PEPTIDE2{[O=C(O)CCCCCCCCCCCCCCC(=O)[*:2]].[gGlu].[O=C(COCCOCCN[*:1])[*:2]]}$PEPTIDE1,PEPTIDE2,16:R3-3:R2$$$V2.0; N-terminus assumed
SMILES: CC[C@H](C)[C@H](NC(=O)[C@H](CO)NC(=O)[C@H](Cc1ccc(O)cc1)NC(=O)[C@H](CC(=O)O)NC(=O)[C@H](CO)NC(=O)[C@@H](NC(=O)[C@H](Cc1ccccc1)NC(=O)[C@@H](NC(=O)CNC(=O)CN)[C@@H](C)O)[C@@H](C)CC)C(=O)N[C@@H](C)C(=O)N[C@@H](CCSC)C(=O)N[C@@H](CC(=O)O)C(=O)N[C@@H](CCCNC(=N)N)C(=O)N[C@H](C(=O)N[C@@H](CCCCNC(=O)COCCOCCNC(=O)CC[C@H](NC(=O)CCCCCCCCCCCCCCC(=O)O)C(=O)O)C(=O)N[C@@H](CCC(N)=O)C(=O)N[C@@H](CCC(N)=O)C(=O)N[C@@H](CC(=O)O)C(=O)N[C@@H](Cc1ccccc1)C(=O)N[C@H](C(=O)N[C@@H](CC(N)=O)C(=O)N[C@@H](Cc1c[nH]c2ccccc12)C(=O)N[C@@H](CC(C)C)C(=O)N[C@@H](CC(C)C)C(=O)N[C@@H](C)C(=O)N[C@@H](CCC(N)=O)C(=O)N[C@@H](CCCNC(=N)N)C(N)=O)C(C)C)[C@@H](C)CC

Target: T1, human GIP receptor
Assay: cell-based or functional assay

In order of falling “CisBio cAMP agonism % Efficacy” value:
1. B3  5%
2. B2  2%
3. B1  0%
4. B4  0%

In order of rising “CisBio cAMP antagonism % inhib” value:
1. B1  69%
2. B3  78%
3. B2  87%
4. B4  89%

In order of falling “CisBio cAMP antagonism IC50” value:
1. B3  147 nM
2. B4  92.6 nM
3. B2  58.4 nM
4. B1  21 nM

In order of falling “CisBio cAMP antagonism pIC50” value:
1. B2  7.2
2. B4  7
3. B3  6.8
4. B1  6.7

B1 was tested, and the “DiscoveRx cAMP agonism Emax” value was 8.

In order of falling “DiscoveRx cAMP antagonism IC50” value:
1. B3  91 nM
2. B1  74 nM
3. B2  30 nM
4. B4  23 nM

In order of rising “DiscoveRx cAMP antagonism log IC50” value:
1. B4  -7.6 log M
2. B2  -7.5 log M
3. B1  -7.1 log M
4. B3  -7 log M

In order of rising “DiscoveRx cAMP antagonism % inhib” value:
1. B3  90%
2. B2  100%
3. B4  100%
